{"source": "patent US20170100454A1", "about": "(VANDERBILT UNIVERSITY, published 2017)", "molecules": {"B1": {"name": "Biotinylated cN50.1 peptide (peptide)", "peptide": "Biotin-GGGGGCVQRKRQKLMPC", "modifications": "disulfide 6-17 (inferred)", "notes": "also called cyclized N50"}, "B2": {"name": "Biotinylated AR5 peptide (auto-inhibitory region of Imp α5) (peptide)", "peptide": "LQLRKQKREEQLFKRRNVATA", "modifications": "also: biotinylated (position and linker not given here)"}, "B3": {"name": "Biotinylated AR7 peptide (auto-inhibitory region of Imp α7) (peptide)", "peptide": "IQLRKQKREQQLFKRRNVELI", "modifications": "also: biotinylated (position and linker not given here)"}, "B4": {"name": "Biotinylated AR1 peptide (auto-inhibitory region of Imp α1) (peptide)", "peptide": "VELRKAKKDDQMLKRRNVSSF", "modifications": "also: biotinylated (position and linker not given here)"}, "B5": {"name": "Biotinylated AR3 peptide (auto-inhibitory region of Imp α3) (peptide)", "peptide": "VELRKNKRDEHLLKRRNVPHE", "modifications": "also: biotinylated (position and linker not given here)"}, "B6": {"name": "Biotinylated AR4 peptide (auto-inhibitory region of Imp α4) (peptide)", "peptide": "VELRKNKRDEHLLKKRNVPQE", "modifications": "also: biotinylated (position and linker not given here)"}, "B7": {"name": "Unlabeled N50 peptide (peptide)", "peptide": "VQRKRQKLMP", "notes": "also called free N50; non-biotinylated N50 peptide"}}, "key": {"[1]": {"molecular_target": "GST-tagged Imp α5 ΔIBB (human) (UniProt P52294)", "sequence (P52294 101-529, stated change not applied)": "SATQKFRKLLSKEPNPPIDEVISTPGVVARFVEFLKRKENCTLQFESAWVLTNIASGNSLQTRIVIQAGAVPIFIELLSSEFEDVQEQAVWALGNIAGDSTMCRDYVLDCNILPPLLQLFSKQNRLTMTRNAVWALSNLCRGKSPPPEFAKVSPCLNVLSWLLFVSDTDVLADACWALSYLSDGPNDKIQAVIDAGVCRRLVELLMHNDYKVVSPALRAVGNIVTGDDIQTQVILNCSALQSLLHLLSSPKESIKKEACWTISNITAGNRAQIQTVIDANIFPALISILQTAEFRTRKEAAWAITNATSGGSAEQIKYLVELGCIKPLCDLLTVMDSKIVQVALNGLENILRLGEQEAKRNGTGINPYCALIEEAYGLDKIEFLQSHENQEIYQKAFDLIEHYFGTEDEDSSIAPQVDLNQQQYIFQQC", "assay": "BLI, biotinylated N50 on SA biosensors; reference is GST-tagged Imp α1 ΔIBB"}, "[2]": {"molecular_target": "GST-tagged Imp α5 ΔIBB (human) (UniProt P52294)", "assay": "BLI (Octet RED96), biotinylated N50 on SA biosensors, GST-tagged Imp α5 ΔIBB at 50-200 nM, 2:1 model; column Imp α5 Major"}, "[3]": {"molecular_target": "GST-tagged Imp α5 ΔIBB (human) (UniProt P52294)", "assay": "BLI (Octet RED96), biotinylated N50 on SA biosensors, GST-tagged Imp α5 ΔIBB at 50-200 nM, 2:1 model; column Imp α5 Minor"}, "[4]": {"molecular_target": "T1, Endogenous human importin beta 1 (human, UniProt Q14974 1-876)", "T1 construct": "mature; Endogenous protein in whole cell lysates, and in Hep-G2 cells for the functional rows; also called Imp β1; KPNB1", "T1 sequence (Q14974 whole entry)": "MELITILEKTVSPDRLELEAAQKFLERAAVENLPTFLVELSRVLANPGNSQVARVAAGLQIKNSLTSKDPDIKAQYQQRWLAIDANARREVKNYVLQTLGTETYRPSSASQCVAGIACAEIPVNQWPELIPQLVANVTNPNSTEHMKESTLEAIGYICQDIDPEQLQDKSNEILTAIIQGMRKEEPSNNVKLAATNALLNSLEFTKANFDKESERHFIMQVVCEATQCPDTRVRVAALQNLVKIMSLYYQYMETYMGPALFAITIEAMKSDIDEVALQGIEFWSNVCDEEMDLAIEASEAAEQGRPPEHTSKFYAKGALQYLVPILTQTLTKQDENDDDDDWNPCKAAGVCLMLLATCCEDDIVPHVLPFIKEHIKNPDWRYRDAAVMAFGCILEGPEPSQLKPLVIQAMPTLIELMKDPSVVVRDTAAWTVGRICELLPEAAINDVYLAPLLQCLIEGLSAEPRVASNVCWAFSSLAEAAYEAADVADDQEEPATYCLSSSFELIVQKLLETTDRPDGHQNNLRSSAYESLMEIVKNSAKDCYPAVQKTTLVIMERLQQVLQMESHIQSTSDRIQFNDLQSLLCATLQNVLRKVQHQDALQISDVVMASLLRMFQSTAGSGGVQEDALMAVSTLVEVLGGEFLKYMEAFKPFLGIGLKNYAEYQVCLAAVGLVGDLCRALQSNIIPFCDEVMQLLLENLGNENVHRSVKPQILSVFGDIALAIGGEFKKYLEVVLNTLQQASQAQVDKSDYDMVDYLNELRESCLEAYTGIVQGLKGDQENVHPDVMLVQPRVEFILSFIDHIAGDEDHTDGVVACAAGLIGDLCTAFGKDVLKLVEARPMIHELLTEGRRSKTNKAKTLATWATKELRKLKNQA", "assay": "pull-down with biotinylated peptide and SA beads from whole cell lysate, immunoblot"}, "[5]": {"molecular_target": "T2, Endogenous human importin alpha 7 (human, UniProt O60684 1-536)", "T2 construct": "mature; also called Imp α7", "assay": "pull-down with biotinylated peptide and SA beads from whole cell lysate, immunoblot"}, "GAPDH [6]": {"molecular_target": "T3, GAPDH (Homo sapiens, UniProt P04406)", "T3 construct": "endogenous, as present in the lysate; also called cellular protein GAPDH", "T3 sequence (P04406 2-335 limits assumed)": "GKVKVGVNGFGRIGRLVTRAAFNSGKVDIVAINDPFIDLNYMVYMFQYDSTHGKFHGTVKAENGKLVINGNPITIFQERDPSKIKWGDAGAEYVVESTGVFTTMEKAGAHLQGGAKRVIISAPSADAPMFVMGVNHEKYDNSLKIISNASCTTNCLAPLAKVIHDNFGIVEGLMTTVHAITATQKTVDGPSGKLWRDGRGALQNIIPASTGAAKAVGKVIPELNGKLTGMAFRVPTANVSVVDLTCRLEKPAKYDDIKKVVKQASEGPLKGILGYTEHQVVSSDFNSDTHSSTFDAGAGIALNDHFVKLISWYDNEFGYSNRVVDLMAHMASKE", "assay": "pull-down: biotinylated peptide in Jurkat T whole cell lysate, streptavidin-coated beads, immunoblot [A]"}, "[7]": {"molecular_target": "T1, Endogenous human importin beta 1", "assay": "pull-down: biotinylated peptide in Jurkat T whole cell lysate, streptavidin-coated beads, immunoblot"}, "[8]": {"molecular_target": "T4, Endogenous human importin alpha 3 (human, UniProt O00629 2-521)", "T4 construct": "mature; also called Imp α3", "T4 sequence (looked up)": "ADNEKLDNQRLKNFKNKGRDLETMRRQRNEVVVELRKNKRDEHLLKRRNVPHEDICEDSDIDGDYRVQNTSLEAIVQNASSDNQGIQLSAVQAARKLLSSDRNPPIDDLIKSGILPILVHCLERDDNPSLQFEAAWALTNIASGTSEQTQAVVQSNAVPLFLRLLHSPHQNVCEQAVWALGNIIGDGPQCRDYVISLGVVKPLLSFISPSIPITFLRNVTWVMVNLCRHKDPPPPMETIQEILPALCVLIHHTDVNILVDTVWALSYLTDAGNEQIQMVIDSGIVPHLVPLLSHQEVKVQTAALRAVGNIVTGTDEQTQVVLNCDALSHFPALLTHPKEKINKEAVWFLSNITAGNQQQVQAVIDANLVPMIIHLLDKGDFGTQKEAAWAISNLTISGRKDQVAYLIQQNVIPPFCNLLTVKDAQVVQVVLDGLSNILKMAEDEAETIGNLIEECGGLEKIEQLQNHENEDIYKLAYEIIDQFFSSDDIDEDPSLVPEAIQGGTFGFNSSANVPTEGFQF", "assay": "pull-down: biotinylated peptide in Jurkat T whole cell lysate, streptavidin-coated beads, immunoblot"}, "GAPDH [9]": {"molecular_target": "T3, GAPDH", "assay": "pull-down: biotinylated peptide in Jurkat T whole cell lysate, streptavidin-coated beads, immunoblot"}, "[10]": {"molecular_target": "T2, Endogenous human importin alpha 7", "assay": "pull-down: biotinylated peptide in Jurkat T whole cell lysate, streptavidin-coated beads, immunoblot"}, "[11]": {"molecular_target": "T5, Endogenous human importin alpha 4 (human, UniProt O00505 2-521)", "T5 construct": "mature; also called Imp α4", "T5 sequence (looked up)": "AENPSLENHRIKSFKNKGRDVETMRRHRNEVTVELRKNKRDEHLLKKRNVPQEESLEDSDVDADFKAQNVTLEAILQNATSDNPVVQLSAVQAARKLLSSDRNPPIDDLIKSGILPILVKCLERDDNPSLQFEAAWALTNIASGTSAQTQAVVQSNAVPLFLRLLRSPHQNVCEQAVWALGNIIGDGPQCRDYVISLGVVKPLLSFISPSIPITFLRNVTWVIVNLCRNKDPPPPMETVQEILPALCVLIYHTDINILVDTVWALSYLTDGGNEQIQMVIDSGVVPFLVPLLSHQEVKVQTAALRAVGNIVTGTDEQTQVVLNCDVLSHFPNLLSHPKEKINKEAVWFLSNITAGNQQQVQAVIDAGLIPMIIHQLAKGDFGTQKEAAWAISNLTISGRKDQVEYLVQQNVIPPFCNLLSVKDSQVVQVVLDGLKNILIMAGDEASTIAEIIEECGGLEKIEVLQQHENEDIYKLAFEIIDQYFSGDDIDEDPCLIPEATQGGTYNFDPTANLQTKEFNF", "assay": "pull-down with biotinylated AR1 and SA beads from Jurkat T cell lysate, immunoblot"}, "[12]": {"molecular_target": "T4, Endogenous human importin alpha 3", "assay": "pull-down with biotinylated AR1 and SA beads from Jurkat T cell lysate, immunoblot"}, "[13]": {"molecular_target": "T6, Endogenous human importin alpha 5 (human, UniProt P52294 1-529 at identity 1.00))", "T6 construct": "Endogenous protein in whole cell lysates, and in Hep-G2 cells for the functional rows; also called Imp α5; KPNA1", "T6 sequence (P52294 1-529 S73N)": "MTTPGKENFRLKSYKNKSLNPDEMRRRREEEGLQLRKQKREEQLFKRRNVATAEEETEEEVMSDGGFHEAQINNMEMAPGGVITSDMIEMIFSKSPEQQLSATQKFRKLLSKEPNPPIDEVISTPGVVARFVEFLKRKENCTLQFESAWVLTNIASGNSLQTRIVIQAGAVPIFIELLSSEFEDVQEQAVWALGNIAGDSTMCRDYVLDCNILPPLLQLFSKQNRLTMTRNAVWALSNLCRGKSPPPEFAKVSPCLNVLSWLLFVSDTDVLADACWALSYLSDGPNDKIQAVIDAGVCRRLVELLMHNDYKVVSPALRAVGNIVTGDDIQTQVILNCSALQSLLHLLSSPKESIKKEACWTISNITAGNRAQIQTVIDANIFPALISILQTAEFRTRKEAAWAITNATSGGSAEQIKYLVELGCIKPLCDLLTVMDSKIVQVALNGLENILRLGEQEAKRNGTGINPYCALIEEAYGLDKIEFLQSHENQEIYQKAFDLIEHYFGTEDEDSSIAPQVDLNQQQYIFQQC", "assay": "pull-down with biotinylated AR1 and SA beads from Jurkat T cell lysate, immunoblot"}, "[14]": {"molecular_target": "T2, Endogenous human importin alpha 7", "assay": "pull-down with biotinylated AR1 and SA beads from Jurkat T cell lysate, immunoblot"}, "[15]": {"molecular_target": "T6, Endogenous human importin alpha 5", "assay": "competition pull-down at 1.5 mg/mL Jurkat T lysate protein, biotinylated N50 on streptavidin beads as competitor, quantitative immunoblot"}, "[16]": {"molecular_target": "T5, Endogenous human importin alpha 4", "assay": "competition pull-down, 1.5 mg/mL Jurkat T cell lysate, 300 µM free N50 against biotinylated N50 on SA beads, quantitative immunoblot"}, "[17]": {"molecular_target": "Endogenous human importin alpha 1 (human) (UniProt P52292)", "assay": "competition pull-down, 1.5 mg/mL Jurkat T cell lysate, 300 µM free N50 against biotinylated N50 on SA beads, quantitative immunoblot"}}, "note": "Positions of bridges follow the written chain, without caps; N, C: chain ends. No end group written: not given here. *: point of attachment. Biotin = O=C1N[C@H]2[C@H](CS[C@H]2CCCCC(=O)*)N1"}
{"molecule": "Biotinylated N50 peptide", "values": [{"measurement": "fold maximum response against Imp α1", "setting": "[1]", "value": "> 20", "unit": "fold"}, {"measurement": "Kd", "setting": "[2]", "value": 73, "unit": "nM"}, {"measurement": "Kd", "setting": "[3]", "value": 140, "unit": "nM"}]}
{"molecule": "B1", "values": [{"measurement": "binding result", "setting": "[4]", "value": "no binding"}, {"measurement": "binding result", "setting": "[5]", "value": "no binding"}, {"measurement": "binding result", "setting": "GAPDH [6]", "value": "no binding"}]}
{"molecule": "B2", "values": [{"measurement": "binding result", "setting": "[7]", "value": "no binding"}, {"measurement": "binding result", "setting": "[8]", "value": "no binding"}, {"measurement": "binding result", "setting": "GAPDH [9]", "value": "no binding"}, {"measurement": "binding result", "setting": "[10]", "value": "no binding"}]}
{"molecule": "B3", "values": [{"measurement": "binding result", "setting": "[7]", "value": "no binding"}, {"measurement": "binding result", "setting": "GAPDH [9]", "value": "no binding"}]}
{"molecule": "B4", "values": [{"measurement": "binding result", "setting": "[7]", "value": "no binding"}, {"measurement": "binding result", "setting": "GAPDH [9]", "value": "no binding"}, {"measurement": "binding result", "setting": "[11]", "value": "no binding"}, {"measurement": "binding result", "setting": "[12]", "value": "no binding"}, {"measurement": "binding result", "setting": "[13]", "value": "no binding"}, {"measurement": "binding result", "setting": "[14]", "value": "no binding"}]}
{"molecule": "B5", "values": [{"measurement": "binding result", "setting": "[7]", "value": "no binding"}, {"measurement": "binding result", "setting": "GAPDH [9]", "value": "no binding"}, {"measurement": "binding result", "setting": "[10]", "value": "no binding"}]}
{"molecule": "B6", "values": [{"measurement": "binding result", "setting": "[7]", "value": "no binding"}, {"measurement": "binding result", "setting": "GAPDH [9]", "value": "no binding"}, {"measurement": "binding result", "setting": "[10]", "value": "no binding"}]}
{"molecule": "B7", "values": [{"measurement": "IC50 (read off the curve)", "setting": "[15]", "value": "~10000", "unit": "nM"}, {"measurement": "percent reduction of band intensity", "setting": "[16]", "value": 20, "unit": "%"}, {"measurement": "percent reduction of band intensity", "setting": "[17]", "value": 20, "unit": "%"}]}
